± gives the standard deviation of the averaged measurements.
B1: library; a variant is named by its letters at N, in order (parent)
chain: GCUGUCACCGGUGUAUUACCCUAGUGGUCGACCGGUCUGAUGAGUCUNNNNNNAGACGAAACAGC

What was measured:
hypoxanthine [1] = variants of: B1; experiment: normalized RNA/DNA level with ligand (relative to sTRSVctl = 100) (log10 (% of sTRSVctl)); ligand: hypoxanthine (xanthine aptamer); higher = less ribozyme self-cleavage, higher mRNA level; conditions: ligand concentration (+) RNA-Seq: 5 mM, HEK293T, reporter: mCherry (pCS4076), ligand present: yes
How it was run: (§1)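 Only sequences with at least 100 DNA reads were analyzed, from HEK293T cells transfected with 4 µg per 6-well well of ribozyme switch library plasmids 72 h before RNA extraction with EDTA. Any ligand was added 1 h before transfection. RNA level was defined as RNA over DNA reads, normalized to a spiked-in non-cleaving sequence or to the top sequences, then scaled and log-transformed. The top set was 25 sequences, and the scaling was ×100 followed by log10.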

hypoxanthine [2] = variants of: B1; experiment: normalized RNA/DNA level without ligand (relative to sTRSVctl = 100) (log10 (% of sTRSVctl)); ligand: hypoxanthine (xanthine aptamer); higher = less ribozyme self-cleavage, higher mRNA level; conditions: HEK293T, reporter: mCherry (pCS4076), ligand present: no
How it was run: as §1

Variant	normalized RNA/DNA level with ligand (log10) (hypoxanthine [1])	normalized RNA/DNA level without ligand (log10) (hypoxanthine [2])
CCACGC	2.01 ± 0.015	1.864 ± 0.0022
ACAGCC	1.97 ± 0.021	1.919 ± 0.01
ACAGCA	1.94 ± 0.032	1.81 ± 0.028
ACAGCU	1.92 ± 0.027	1.87 ± 0.033
CAUCUG	1.97 ± 0.022	1.92 ± 0.081
CAUCUA	2.01 ± 0.12	1.85 ± 0.055
CAUCUC	1.957 ± 0.0025	2.01 ± 0.021
CAUCUU	2 ± 0.027	1.93 ± 0.047
UAUUGA	1.901 ± 0.016	1.74 ± 0.021
UAUUGC	1.94 ± 0.038	1.841 ± 0.0096
UAUUAG	1.873 ± 0.0072	1.6759 ± 0.00016
GCAGGU	1.93 ± 0.031	1.73 ± 0.056
GCAGGC	1.861 ± 0.0028	1.65 ± 0.036
AAUGCU	1.92 ± 0.071	1.864 ± 0.011
AAUGCC	1.942 ± 0.015	1.83 ± 0.039
UCAACU	1.962 ± 0.016	1.883 ± 0.0061
UCAACC	1.978 ± 0.0062	1.95 ± 0.06
UAUGGA	1.906 ± 0.012	1.65 ± 0.02
GAUUUC	1.972 ± 0.018	1.907 ± 0.012
GAUUUU	1.947 ± 0.0067	1.908 ± 0.0016

Variant	normalized RNA/DNA level with ligand (log10) (hypoxanthine [1])	normalized RNA/DNA level without ligand (log10) (hypoxanthine [2])
UAUGUA	1.906 ± 0.0084	1.837 ± 0.0025
UAUGUU	1.94 ± 0.06	1.85 ± 0.049
UAUGAU	1.91 ± 0.022	1.7488 ± 0.0016
UAUGAG	1.86 ± 0.046	1.54 ± 0.046
UAUGAA	1.915 ± 0.013	1.73 ± 0.023
CAUUUU	1.973 ± 0.0049	1.804 ± 0.0085
CAUUUG	1.98 ± 0.1	1.9 ± 0.049
ACAACA	1.92 ± 0.028	1.85 ± 0.022
ACAACC	1.91 ± 0.04	1.91 ± 0.013
ACAACG	1.89 ± 0.047	1.49 ± 0.021
ACAACU	1.885 ± 0.018	1.83 ± 0.037
AAUUCU	1.9751 ± 0.00092	1.855 ± 0.0071
AAUUCC	1.98 ± 0.039	1.9 ± 0.027
UCAAGG	1.936 ± 0.0091	1.79 ± 0.026
UCAAGC	1.964 ± 0.019	1.87 ± 0.053
CCAAUA	1.899 ± 0.0083	1.8 ± 0.032
CCAAUC	1.98 ± 0.032	1.94 ± 0.044
CCAAUU	1.924 ± 0.016	1.85 ± 0.028
UAUUCU	1.96 ± 0.079	1.88 ± 0.035
UAUUCG	1.929 ± 0.0088	1.74 ± 0.072

Variant	normalized RNA/DNA level with ligand (log10) (hypoxanthine [1])	normalized RNA/DNA level without ligand (log10) (hypoxanthine [2])
UAUUCC	1.95 ± 0.023	1.852 ± 0.012
GCAGUU	1.9707 ± 0.00023	1.855 ± 0.015
GCAGUA	1.948 ± 0.012	1.772 ± 0.0069
AAUCGA	1.92 ± 0.076	1.63 ± 0.034
AAUCGU	1.94 ± 0.023	1.69 ± 0.022
AAUCGC	1.92 ± 0.03	1.82 ± 0.053
GCACCG	1.89 ± 0.023	1.62 ± 0.058
GCACCA	1.939 ± 0.016	1.88 ± 0.023
GCACCC	1.86 ± 0.021	1.78 ± 0.035
GAUCUG	1.92 ± 0.051	1.58 ± 0.039
GAUCUC	1.939 ± 0.0052	1.976 ± 0.0046
GAUCUA	1.95 ± 0.055	1.86 ± 0.033
GAUCUU	1.96 ± 0.028	1.943 ± 0.0084
GCAACU	1.97 ± 0.042	1.96 ± 0.028
GCAACG	1.9 ± 0.031	1.595 ± 0.0074
GCAACC	1.93 ± 0.052	1.82 ± 0.03
UCACCC	1.97 ± 0.026	1.89 ± 0.029
GCACAU	1.96 ± 0.033	1.76 ± 0.037
